Source: patent US20050100540A1, “Platelet-activating factor acetylhydrolase” (priority 1993, published 2005)

Columns and labels:
Format in all cases: in vivo
PAF-induced foot edema = assay: PAF-induced rat foot edema model
Protocol: (§1) Six to eight-week-old female Long Evans rats (Charles River, Wilmington, Mass.), weighing 180-200 grams, were used for all experiments. Prior to experimental manipulations, animals were anesthetized with a mixture of the anesthetics Ketaset (Fort Dodge laboratories, Fort Dodge, Iowa), Rompun (Miles, Shawnee Mission, Kans.), and Ace Promazine (Aveco, Fort Dodge, Iowa) administered subcutaneously at approximately 2.5 mg Ketaset, 1.6 mg Rompun, 0.2 mg Ace Promazine per animal per dose. Edema was induced in the foot by administration of either PAF or zymosan as follows. PAF (Sigma #P-1402) was freshly prepared for each experiment from a 19.1 mM stock solution stored in chloroform/methanol (9:1) at −20° C. Required volumes were dried down under N2, diluted 1:1000 in a buffer containing 150 mM NaCl, 10 nM Tris pH 7.5, and 0.25% BSA, and sonicated for five minutes. Animals received 50 μl PAF (final dose of 0.96 nmoles) subcutaneously between the hind foot pads, and edema was assessed after 1 hour and again after 2 hours in some experiments. Zymosan A (Sigma #A-8800) was freshly prepared for each experiment as a suspension of 10 mg/ml in PBS. Animals received 50 μl of zymosan (final dose of 500 μg) subcutaneously between the hind foot pads and edema was assessed after 2 hours.
Edema was quantitated by measuring the foot volume immediately prior to administration of PAF or zymosan and at indicated time point post-challenge with PAF or zymosan. Edema is expressed as the increase in foot volume in milliliters. Volume displacement measurements were made on anesthetized animals using a plethysmometer (UGO Basile, model #7150) which measures the displaced water volume of the immersed foot. […] Repeated measurements of the same foot using this technique indicate the precision to be within 5%.
PAF-AH was injected locally between the foot pads, or systematically by IV injection in the tail vein. For local administration rats received 100 μl PAF-AH (4000-6000 U/ml) delivered subcutaneously between the right hind foot pads. Left feet served as controls by administration of 100 μl carrier (buffered salt solution). For systemic administration of PAF-AH, rats received the indicated units of PAF-AH in 300 μL of carrier administered IV in the tail vein. Controls received the appropriate volume of carrier IV in the tail vein.
Rats (N=4) were injected with 100 μl of PAF-AH (4000-6000 U/ml) subcutaneously between the right foot pads. Left feet were injected with 100 μl carrier (buffered salt solution). Four other rats were injected only with carrier. All rats were immediately challenged with PAF via subcutaneous foot injection and foot volumes assessed 1 hour post-challenge. FIG. 4, wherein edema is expressed as average increase in foot volume (ml)±SEM for each treatment group, illustrates that PAF-induced foot edema is blocked by local administration of PAF-AH.
Rats (N=4 per group) were pretreated IV with either PAF-AH (2000 U in 300 μl carrier) or carrier alone, 15 minutes prior to PAF challenge. Edema was assessed 1 and 2 hours after PAF challenge. FIG. 5, wherein edema is expressed as average increase in volume (ml)±SEM for each treatment group, illustrates that IV administration of PAF-AH blocked PAF induced foot edema at one and two hours post challenge. […] Mean volume increase for the PAF-AH treated group at two hours was 0.10 ml±0.08 (SEM), versus 0.56 ml±0.11 for carrier treated controls.
(§2) Rats (N=4 per group) were pretreated IV with either PAF-AH (2000 U in 300 μl carrier) or carrier alone. Fifteen minutes after pretreatment, groups received either PAF or zymosan A, and foot volume was assessed after 1 and 2 hours, respectively.
In two separate experiments, groups of rats (N=3 to 4 per group) were pretreated IV with either serial dilutions of PAF-AH or carrier control in a 300 μl volume, 15 minutes prior to PAF challenge. Both feet were challenged with PAF (as described above) and edema was assessed after 1 hour. […]

[1] = system: zymosan A-induced foot edema; assay: Zymosan A-induced rat foot edema; conditions: 2000 U IV, foot volume after 2 hours
Protocol: as §1, with “PAF (Sigma #P-1402) was freshly prepared for each experiment from a 19.1 mM stock solution stored in chloroform/methanol (9:1) at −20° C. Required volumes were dried down under N2, diluted 1:1000 in a buffer containing 150 mM NaCl, 10 nM Tris pH 7.5, and 0.25% BSA, and sonicated for five minutes.” left out, “Zymosan A (Sigma #A-8800) was freshly prepared for each experiment as a suspension of 10 mg/ml in PBS.” left out
Edema was quantitated by measuring the foot volume immediately prior to administration of PAF or zymosan and at indicated time point post-challenge with PAF or zymosan. Edema is expressed as the increase in foot volume in milliliters. […]
as §2

PAF mediated lung injury = assay: Guinea pig model of acute respiratory distress syndrome (ARDS), BAL protein; conditions: 2000 units 15 minutes before 400 ng/kg PAF infusion
Protocol: Base on the above observations, an ARDS model in guinea pigs % as developed. A cannula is placed into the jugular vein of anaesthetized male Hartly guinea pigs (approximately 350-400 grams) and PAF diluted in a 500 μl volume of phosphate buffered saline with 0.25% bovine serum albumin as a carrier (PBS-BSA) is infused over a 15 minute period of time at a total dosage ranging from 100-400 ng/kg. At various intervals following PAF infusion, animals are sacrificed and lung tissue is collected. In guinea pigs infused with PAF, dose dependent lung damage and inflammation is clearly evident by 15 minutes and continues to be present at 60 minutes. Neutrophils and red blood cells are present in the alveolar spaces of PAF treated guinea pigs but absent in control or sham infused animals. Evidence of epithelial cell damage is also evident and reminiscent of hyaline membrane formation in human ARDS patients.
Groups of guinea pigs were pretreated with either PAF-AH (2000 units in 500 μl) or 500 μl of the PAF-AH buffer only. Fifteen minutes later these guinea pigs were infused with 400 ng/kg PAF in a 500 μl volume, infused over a 15 minute period. In addition, a sham group of guinea pigs was infused with 500 μl of PBS-BSA. […] To determine protein concentration in the BAL, samples were diluted 1:10 in saline and the OD 280 was determined.

B1: PAF-AH: Recombinant human plasma platelet-activating factor acetylhydrolase (beginning at Ile42) expressed in E. coli from construct pUC trp AH (protein)
chain: IQVLMAAASFGQTKIPRGNGPYSVGCTDLMFDHTNKGTFLRLYYPSQDNDRLDTLWIPNKEYFWGLSKFLGTHWLMGNILRLLFGSMTTPANWNSPLRPGEKYPLVVFSHGLGAFRTLYSAIGIDLASHGFIVAAVEHRDRSASATYYFKDQSAAEIGDKSWLYLRTLKQEEETHIRNEQVRQRAKECSQALSLILDIDHGKPVKNALDLKFDMEQLKDSIDREKIAVIGHSFGGATVIQTLSEDQRFRCGIALDAWMFPLGDEVYSRIPQPLFFINSEYFQYPANIIKMKKCYSPDKERKMITIRGSVHQNFADFTFATGKIIGHMLKLKGDIDSNVAIDLSNKASLAFLQKHLGLHKDFDQWDCLIEGDDENLIPGTNINTTNQHIMLQNSSGIEKYN
B1 was tested, and the “Mean increase in volume” value (PAF-induced foot edema; 2000 U IV 15 minutes prior to PAF, after 1 hour, ±SEM) was 0.08 ± 0.02 mL, the Mean volume increase (PAF-induced foot edema; 2000 U IV 15 minutes prior to PAF, at two hours, ±SEM) was 0.10 mL and the “IV dose range found to dramatically reduce PAF mediated inflammation” value (PAF-induced foot edema; IV injections) was 160-2000 U/rat. For the same molecule, the ID50 dosage (PAF-induced foot edema; IV, summary of dosing studies) was 40-80 U/rat, the “PAF-induced edema compared with PAF antagonists” value (PAF-induced foot edema; PAF-AH 2000 U IV vs CV3988 or Alprazolam 2 mg IP) was “reduction in PAF-induced edema beyond that afforded by the established PAF antagonists CV3988 and Alprazolam” and the “Plasma concentration predicted to block PAF-elicited edema” value (PAF-induced foot edema; calculated from plasma volume for 180-200 gram rats) was 25-40 U/ml. The “Increase in foot volume” value (PAF-induced foot edema; local s.c. 100 μl PAF-AH (4000-6000 U/ml), 1 hour post PAF challenge, ±SEM) was 0.08 mL, the “Duration of protection from PAF induced edema” value (PAF-induced foot edema; single 2000 U IV dose) was “at least 24 hours” and the “Effect on zymosan induced edema” value [1] was “failed to block zymosan induced edema”. The “BAL fluid protein concentration” value (PAF mediated lung injury) was 1.13 ± 0.25 mg/mL.
